# Reference: patent US5876950
# B1: monoclonal antibody 39-1.7 (antibody, V domains shown)
# VH: EVQLQQSGPELVKPGASVKMSCKASGYTFTDYYMKWVKQSHGKSLEWIGNINPNNGDTFFNQKFEGKATLTVDKSSSAAYMQLNSLTSEDSAVKKCARGPGTNYFDYWGQGTTLTVSS
# VL: DIVLTQSPVSLAVSLGQRVTISCRASQSVSSSTNSYMHWYQQKPGQPPKLLIKYASNLESGVPARFSGSGSGTDFTLNIHPVEEEDTATYYCQHSWEIPFTFGSGTKLEIRR
# B2: monoclonal antibody 39-1.106 (antibody, V domains shown)
# VH: EVKLVESGGGLVKPGGSLKLSCTTSGFTFNNYAMSWVRQTPEKRLEWVASISSGDSTYYPDSVRGRFTISRDNARNILYLQMSSLRSEDTAMYYCARHYDYDSYAMDYWGQGTSVTVSS
# VL: DIQMTQSPASLSASVGETVTITCRASETIYSYLAWYQQKQGRSPQLLVYNAKTLAEGVPSRFSGSGSGTQFSLKINSLQPEDFGSYYCQHHYNTPLTFGTGTKLELKR
# How the values were obtained:
# human gp39 (human) [1] = target: human gp39 (human) (UniProt P29965)
# Sequence of human gp39 (human) (P29965 whole entry, the tested form may be a part): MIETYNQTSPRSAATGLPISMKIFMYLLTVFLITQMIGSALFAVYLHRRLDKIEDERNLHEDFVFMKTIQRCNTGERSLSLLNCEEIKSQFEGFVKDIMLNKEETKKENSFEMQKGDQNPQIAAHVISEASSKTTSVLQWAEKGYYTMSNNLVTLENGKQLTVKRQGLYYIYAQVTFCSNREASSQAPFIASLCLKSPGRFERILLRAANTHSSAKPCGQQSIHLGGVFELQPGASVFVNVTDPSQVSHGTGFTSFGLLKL
# human gp39 (human) [2] = target: human gp39 (human) (UniProt P29965); remark: listed apart in the source
# human gp39 (human) [3] = target: human gp39 (human) (UniProt P29965); remark: listed apart in the source
# [4] = target: gp39-CD8 fusion protein mutant F201/A-E202/A (murine; human); experiment: ELISA on captured mutant gp39-CD8
# [5] = target: gp39-CD8 fusion protein mutant E129/A (murine; human); experiment: ELISA on captured mutant gp39-CD8
# Sequence of gp39-CD8 fusion protein mutant E129/A (murine; human) (P01731 other isoform, or with tags, fused parts or gaps mutant): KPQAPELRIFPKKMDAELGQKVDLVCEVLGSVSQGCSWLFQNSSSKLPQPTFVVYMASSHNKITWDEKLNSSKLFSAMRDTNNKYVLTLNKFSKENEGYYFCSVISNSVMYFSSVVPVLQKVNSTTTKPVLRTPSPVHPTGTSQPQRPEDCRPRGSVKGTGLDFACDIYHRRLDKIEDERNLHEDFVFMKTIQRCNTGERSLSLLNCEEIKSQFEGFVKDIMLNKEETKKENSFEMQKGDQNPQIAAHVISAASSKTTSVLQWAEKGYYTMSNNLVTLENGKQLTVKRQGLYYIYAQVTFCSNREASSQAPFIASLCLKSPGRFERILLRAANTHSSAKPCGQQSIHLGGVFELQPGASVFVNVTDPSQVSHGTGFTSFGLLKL
# [6] = target: gp39-CD8 fusion protein mutant S131/A-T135/A (murine; human); experiment: ELISA on captured mutant gp39-CD8
# Sequence of gp39-CD8 fusion protein mutant S131/A-T135/A (murine; human) (P01731 other isoform, or with tags, fused parts or gaps mutant): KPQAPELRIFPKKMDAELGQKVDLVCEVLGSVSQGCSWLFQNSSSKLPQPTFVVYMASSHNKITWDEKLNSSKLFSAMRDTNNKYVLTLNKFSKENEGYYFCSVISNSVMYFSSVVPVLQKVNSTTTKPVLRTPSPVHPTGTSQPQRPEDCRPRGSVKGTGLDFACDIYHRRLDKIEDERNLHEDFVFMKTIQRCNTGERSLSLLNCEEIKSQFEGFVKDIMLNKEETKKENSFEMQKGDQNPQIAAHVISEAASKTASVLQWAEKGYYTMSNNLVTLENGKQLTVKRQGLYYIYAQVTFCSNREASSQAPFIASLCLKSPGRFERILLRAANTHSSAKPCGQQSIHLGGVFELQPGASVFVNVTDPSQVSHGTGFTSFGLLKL
# [7] = target: gp39-CD8 fusion protein mutant N180/A (murine; human); experiment: ELISA on captured mutant gp39-CD8
# Sequence of gp39-CD8 fusion protein mutant N180/A (murine; human) (P01731 other isoform, or with tags, fused parts or gaps mutant): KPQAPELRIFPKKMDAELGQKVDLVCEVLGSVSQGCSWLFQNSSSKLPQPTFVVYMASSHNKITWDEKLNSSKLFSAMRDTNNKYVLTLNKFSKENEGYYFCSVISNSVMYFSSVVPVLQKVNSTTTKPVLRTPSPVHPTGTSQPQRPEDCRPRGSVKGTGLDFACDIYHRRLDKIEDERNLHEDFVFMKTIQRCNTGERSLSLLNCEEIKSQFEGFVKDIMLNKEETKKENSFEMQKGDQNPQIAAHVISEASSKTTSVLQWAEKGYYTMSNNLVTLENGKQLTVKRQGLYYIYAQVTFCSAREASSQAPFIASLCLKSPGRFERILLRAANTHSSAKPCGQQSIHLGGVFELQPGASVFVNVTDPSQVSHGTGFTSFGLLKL
# [8] = target: gp39-CD8 fusion protein mutant Y145/A (murine; human); experiment: ELISA on captured mutant gp39-CD8
# Sequence of gp39-CD8 fusion protein mutant Y145/A (murine; human) (P01731 other isoform, or with tags, fused parts or gaps mutant): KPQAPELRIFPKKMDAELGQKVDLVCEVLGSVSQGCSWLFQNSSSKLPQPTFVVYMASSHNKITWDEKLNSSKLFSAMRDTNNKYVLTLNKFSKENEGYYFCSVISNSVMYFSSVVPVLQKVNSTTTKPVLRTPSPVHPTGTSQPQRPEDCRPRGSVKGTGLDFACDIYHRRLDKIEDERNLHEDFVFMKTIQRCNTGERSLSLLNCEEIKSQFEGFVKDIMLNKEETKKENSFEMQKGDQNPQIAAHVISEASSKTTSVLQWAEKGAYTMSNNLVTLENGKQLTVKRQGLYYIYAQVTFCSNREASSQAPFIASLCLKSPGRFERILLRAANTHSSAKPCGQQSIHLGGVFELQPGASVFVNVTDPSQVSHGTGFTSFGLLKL
# [9] = target: gp39-CD8 fusion protein mutant K143/A (murine; human); experiment: ELISA on captured mutant gp39-CD8
# human gp39 (human) [10] = target: human gp39 (human) (UniProt P29965); experiment: saturation binding of iodinated protein to gp39+ BMS-10 Jurkat cells
# human gp39 (human) [11] = target: human gp39 (human) (UniProt P29965); experiment: saturation binding of radiolabeled protein to Jurkat cells constitutively expressing gp39
# human gp39 (human) [12] = target: human gp39 (human) (UniProt P29965); experiment: Scatchard transformation, BMS-10 Jurkat cells
Molecule,"IgM produced, % of medium control (IgG in the next line) (% of medium control) (human gp39 (human) [1])","[3H]thymidine incorporation of B cells, % of medium control (% of medium control) (human gp39 (human) [1])","IgG synthesis at 7.53 x 10^12 binding sites/ml, % of medium only control (% of medium only control) (human gp39 (human) [2])","IgG synthesis by B cells at 20 µg/ml purified mAb, % of medium control (% of medium control) (human gp39 (human) [3])",binding relative to wild-type gp39 [4] [%],binding relative to wild-type gp39 [5] [%],binding relative to wild-type gp39 [6] [%],binding relative to wild-type gp39 [7] [%],binding relative to wild-type gp39 [8] [%],binding relative to wild-type gp39 [9] [%],Kd (human gp39 (human) [10]) [nM],fold greater affinity than 106 sFv-Ig (human gp39 (human) [11]) [fold],sites per cell (sites per cell) (human gp39 (human) [12])
negative control monoclonal antibody,87.9,87.9,,,,,,,,,,,
B1,13.9,3.3,12,17,112,70,89,93,106,5,,,
B2,17.9,2.9,11,8,9,130,113,144,124,52,0.4,3,10000
